Reference: patent publication CN111690062A (UNIV FUDAN, dated 2020)

Molecular target: T1, Plasmodium falciparum PfRh5 protein (recombinant, expressed in Sf9 insect cells) (Plasmodium falciparum (恶性疟原虫), UniProt Q8IFM5 25-526, limits assumed)
T1 construct: In the BLI assay the protein was amine-coupled to AR2G sensors; also called 恶性疟PfRh5蛋白; PfRh5蛋白
T1 sequence (looked up): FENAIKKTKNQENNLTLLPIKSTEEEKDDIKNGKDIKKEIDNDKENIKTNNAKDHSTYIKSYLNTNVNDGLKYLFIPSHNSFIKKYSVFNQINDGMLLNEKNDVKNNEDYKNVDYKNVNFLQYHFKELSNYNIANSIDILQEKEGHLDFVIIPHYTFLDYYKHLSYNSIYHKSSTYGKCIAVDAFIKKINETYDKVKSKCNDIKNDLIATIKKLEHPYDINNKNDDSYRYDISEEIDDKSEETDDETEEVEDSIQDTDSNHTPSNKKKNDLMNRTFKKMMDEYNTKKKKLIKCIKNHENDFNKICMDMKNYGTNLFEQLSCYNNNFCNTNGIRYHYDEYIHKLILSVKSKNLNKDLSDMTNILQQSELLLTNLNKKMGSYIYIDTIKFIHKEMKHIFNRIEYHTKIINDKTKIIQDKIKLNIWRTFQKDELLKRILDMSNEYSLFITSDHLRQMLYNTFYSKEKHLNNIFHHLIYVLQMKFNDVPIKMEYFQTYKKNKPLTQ
Test: BLI (Octet-Red96) at 37°C; PfRh5 amine-coupled to AR2G sensor; G9 as analyte at 1.2-100 nM in 3-fold dilutions; 1:1 fit

B1: G9 antigen-binding fragment (Fab), fully human, against Plasmodium falciparum PfRh5 (Fab, V domains shown)
VH: EVQLVQSGGGLVQPGGSLRLSCAASGFTFDDYAMHWVRQAPGKGLEWVAVIWYDGSNKYYADSVKGRFTISRDNSKNTLYLQMNSLRAEDTAVYYCAREHIDDPAMVPSPPAFDIWGQGTMVTVSS
VL: EIVLTQSPATLSLSPGERATLSCRASQSVSSYLAWYQQKPGQAPRLLIYDASNRATGIPARFSGSGSGTDFTLTISSLEPEDFATYYCQQSYSTPRTFGQGTKLEIK
notes: also called 抗体G9; 克隆G9
- Kd: 4.9 nM
